Experiments:
[1] = HA-Ub co-transfection, IP, 293T; settings: glycan lost; control: SPOP-WT
WB, CRC cells = settings: glycan lost; control: SPOP-WT
[2] = HA-Ub, MYC-β-catenin IP, 293T; settings: glycan lost; control: SPOP-WT
WB of SPOP, HCT116 = settings: glycan lost; control: untreated cells

| Protein | other: ubiquitination of SPOP [1] | other: substrate β-catenin protein level (WB, CRC cells) | other: substrate β-catenin ubiquitination [2] | expression_or_secretion (WB of SPOP, HCT116) |
| --- | --- | --- | --- | --- |
| SPOP (Speckle-type POZ protein): S58/59 A (protein) parent chain: MSRVPSPPPPAEMSSGPVAESWCYTQIKVVKFSYMWTINNFSFCREEMGEVIKSSTFSSGANDKLKWCLRVNPKGLDEESKDYLSLYLLLVSCPKSEVRAKFKFSILNAKGEETKAMESQRAYRFVQGKDWGFKKFIRRDFLLDEANGLLPDDKLTLFCEVSVVQDSVNISGQNTMNMVKVPECRLADELGGLWENSRFTDCCLCVAGQEFQAHKAILAARSPVFSAMFEHEMEESKKNRVEINDVEPEVFKEMMCFIYTGKAPNLDKMADDLLAAADKYALERLKVMCEDALCSNLSVENAAEILILADLHSADQLKTQAVDFINYHASDVLETSGWKSMVVSHPHLVAEAYRSLASAQCPFLGPPRKRLKQS | increases | decreases | increases | – |
| SPOP (Speckle-type POZ protein): OSMI-1 (protein) parent chain: MSRVPSPPPPAEMSSGPVAESWCYTQIKVVKFSYMWTINNFSFCREEMGEVIKSSTFSSGANDKLKWCLRVNPKGLDEESKDYLSLYLLLVSCPKSEVRAKFKFSILNAKGEETKAMESQRAYRFVQGKDWGFKKFIRRDFLLDEANGLLPDDKLTLFCEVSVVQDSVNISGQNTMNMVKVPECRLADELGGLWENSRFTDCCLCVAGQEFQAHKAILAARSPVFSAMFEHEMEESKKNRVEINDVEPEVFKEMMCFIYTGKAPNLDKMADDLLAAADKYALERLKVMCEDALCSNLSVENAAEILILADLHSADQLKTQAVDFINYHASDVLETSGWKSMVVSHPHLVAEAYRSLASAQCPFLGPPRKRLKQS | – | – | – | increases |

— paper PMC12603323
